Results published in the Human Domainome abundance scans (Beltran et al. 2025).
± gives the uncertainty stated by the source.

B1: Zinc finger MYM-type protein 2, residues 463 to 506; numbered along this chain, Q9UBW7 (parent)
chain: IMNCCEQCGEYLPSKGAGNNVLVIDGQQKRFCCQSCVSEYKQVG

Variants of: B1
Assay: abundance fitness (aPCA) (normalised: wild type 0, dead -1); higher = more abundant; growth selection in yeast, the domain comes from the species named
Conditions: Homo sapiens

Abundance fitness of substitutions, site by site:
S35: P -0.058 ± 0.13, M -0.087 ± 0.11, R 0.085 ± 0.072, V -0.092 ± 0.1, A -0.072 ± 0.074, H -0.091 ± 0.2, W -0.114 ± 0.088, F -0.226 ± 0.19, K 0.156 ± 0.1, Q -0.065 ± 0.095, C -0.113 ± 0.088, E 0.006 ± 0.1, I 0.024 ± 0.11, G 0.024 ± 0.077, L -0.136 ± 0.07, Y -0.08 ± 0.22
F31: D -0.167 ± 0.096, H -0.273 ± 0.16, K -0.719 ± 0.27, W -0.498 ± 0.092, M -0.267 ± 0.075, S -0.231 ± 0.099, L -0.248 ± 0.083, Y -0.144 ± 0.12, P -0.223 ± 0.094, A -0.175 ± 0.074, V -0.373 ± 0.081, N -0.392 ± 0.37, Q -0.119 ± 0.097, R -0.366 ± 0.07, G -0.185 ± 0.087
G44: R -0.058 ± 0.094, Q -0.471 ± 0.37, P -0.217 ± 0.4, T -0.118 ± 0.096, L -0.262 ± 0.17, E -0.172 ± 0.15, V -0.144 ± 0.11, W -0.189 ± 0.088, C -0.157 ± 0.11
Y40: R -0.037 ± 0.07, M -0.167 ± 0.12, V -0.108 ± 0.1, E 0.067 ± 0.096, N -0.309 ± 0.39, D -0.057 ± 0.18, S 0.121 ± 0.1, C 0.429 ± 0.29, I -0.249 ± 0.14, T 0.11 ± 0.11, G 0.057 ± 0.096, L -0.163 ± 0.089, Q 0.067 ± 0.12, F -0.334 ± 0.4, P 0.192 ± 0.16, W 0.002 ± 0.11, K -0.057 ± 0.18
Q42: S -0.023 ± 0.13, N 0.438 ± 0.38, H -0.08 ± 0.12, T 0.002 ± 0.11, R 0.063 ± 0.072, P -0.169 ± 0.22, M -0.119 ± 0.17, V 0.151 ± 0.087, K -0.045 ± 0.26, E -0.102 ± 0.11, W -0.398 ± 0.14, A 0.109 ± 0.078, L -0.101 ± 0.11, G 0.076 ± 0.077
Q27: V -0.144 ± 0.095, L -0.045 ± 0.097, E -0.1 ± 0.11, F -0.173 ± 0.23, R -0.206 ± 0.091, A -0.045 ± 0.13, P -0.218 ± 0.12, G -0.039 ± 0.079, C -0.084 ± 0.17, S -0.172 ± 0.12, W -0.198 ± 0.1
C32: L -0.451 ± 0.089, W -0.559 ± 0.084, Q -0.518 ± 0.11, A -0.354 ± 0.076, N -0.655 ± 0.26, G -0.313 ± 0.067, M -0.537 ± 0.12, F -0.653 ± 0.36, E -0.339 ± 0.085, Y -0.634 ± 0.33, T -0.433 ± 0.085, R -0.298 ± 0.073, I -0.71 ± 0.18, K -0.439 ± 0.13, S -0.398 ± 0.084, P -0.454 ± 0.1, V -0.36 ± 0.077
K41: T 0.209 ± 0.13, F -0.285 ± 0.15, P 0.014 ± 0.083, A -0.096 ± 0.086, L -0.122 ± 0.11, Q 0.006 ± 0.092, D 0.193 ± 0.12, M -0.059 ± 0.12, V -0.221 ± 0.094, S 0.027 ± 0.094, G 0.042 ± 0.09, Y -0.41 ± 0.25, R 0.03 ± 0.086
R30: E 0.3 ± 0.094, Y -0.354 ± 0.41, K 0.216 ± 0.17, S 0.111 ± 0.1, P 0.092 ± 0.089, T 0.132 ± 0.091, Q 0.193 ± 0.085, H -0.464 ± 0.34, C 0.262 ± 0.17, M 0.068 ± 0.091, G 0.026 ± 0.071, F -0.088 ± 0.12, V 0.197 ± 0.075, D 0.165 ± 0.12, L 0.177 ± 0.069
E39: Y 0.032 ± 0.15, T 0.093 ± 0.13, G 0.095 ± 0.083, S 0.054 ± 0.1, C 0.204 ± 0.11, K 0.33 ± 0.12, V 0.086 ± 0.087, A 0.09 ± 0.076, Q -0.144 ± 0.2, M 0.087 ± 0.13, P -0.285 ± 0.13, W -0.478 ± 0.098, L -0.265 ± 0.14
Q34: S 0.009 ± 0.085, A 0.061 ± 0.075, I -0.448 ± 0.21, T -0.031 ± 0.1, N -0.028 ± 0.25, F -0.039 ± 0.13, L -0.223 ± 0.097, C -0.113 ± 0.11, K -0.213 ± 0.13, W -0.226 ± 0.082, H 0.004 ± 0.13, P -0.033 ± 0.11, E 0.087 ± 0.12, R -0.232 ± 0.077, D 0.013 ± 0.12, G -0.017 ± 0.072, Y -0.615 ± 0.47, V 0.036 ± 0.084, M 0.044 ± 0.11
C36: N -0.273 ± 0.34, H -0.341 ± 0.3, R -0.37 ± 0.079, Y -0.445 ± 0.15, F -0.665 ± 0.16, G -0.303 ± 0.081, T -0.106 ± 0.13, E -0.376 ± 0.092, L -0.423 ± 0.088, V -0.463 ± 0.091, P -0.168 ± 0.22, I 0.163 ± 0.3, Q -0.201 ± 0.098, S -0.45 ± 0.086, D -0.262 ± 0.16
C33: E 0.008 ± 0.082, R -0.121 ± 0.089, D 0.051 ± 0.11, T -0.031 ± 0.11, L -0.385 ± 0.097, G -0.023 ± 0.069, S 0.024 ± 0.093, M -0.201 ± 0.12, P -0.342 ± 0.09, A -0.017 ± 0.093, Q -0.086 ± 0.13, N -0.164 ± 0.18, H -0.09 ± 0.12, F -0.517 ± 0.18
V37: C 0.018 ± 0.15, E 0.109 ± 0.1, G -0.226 ± 0.075, P -0.135 ± 0.13, Q -0.024 ± 0.14, A -0.063 ± 0.083, M 0.181 ± 0.14, T 0.049 ± 0.13, F -0.259 ± 0.16, R -0.112 ± 0.072, W -0.093 ± 0.086, S -0.161 ± 0.099, K -0.101 ± 0.085, D -0.227 ± 0.1
D25: R -0.229 ± 0.11, T -0.06 ± 0.28, K -0.155 ± 0.14, P -0.456 ± 0.14, G -0.076 ± 0.082, M -0.35 ± 0.32, V -0.51 ± 0.094, W -0.618 ± 0.21, S -0.279 ± 0.14, H 0.126 ± 0.18, Q -0.367 ± 0.17, L -0.455 ± 0.13
V43: L -0.222 ± 0.15, R -0.039 ± 0.1, M -0.218 ± 0.14, G 0.039 ± 0.091, H -0.361 ± 0.34, D -0.123 ± 0.34, P 0.144 ± 0.22, W -0.296 ± 0.16, T -0.026 ± 0.13, Q -0.055 ± 0.12, A 0.001 ± 0.084, S -0.159 ± 0.16, E -0.067 ± 0.091
Q28: K -0.301 ± 0.18, W -0.405 ± 0.094, N -0.29 ± 0.18, H 0.117 ± 0.2, L -0.346 ± 0.12, D 0.189 ± 0.22, T -0.032 ± 0.1, Y -0.305 ± 0.16, V -0.169 ± 0.099, P -0.065 ± 0.11, I -0.038 ± 0.33, G -0.239 ± 0.072, C -0.47 ± 0.15, M -0.123 ± 0.15, A -0.133 ± 0.086
S38: M -0.038 ± 0.11, E 0.062 ± 0.09, G -0.024 ± 0.071, T -0.113 ± 0.12, A 0.019 ± 0.082, D -0.081 ± 0.16, P -0.329 ± 0.19, C -0.108 ± 0.14, L -0.038 ± 0.081, Q -0.01 ± 0.16, I -0.106 ± 0.25, H -0.183 ± 0.32, K -0.025 ± 0.11, W -0.197 ± 0.092
G26: A -0.059 ± 0.1, L -0.307 ± 0.089, Q -0.083 ± 0.12, R -0.255 ± 0.07, E -0.077 ± 0.098, W -0.337 ± 0.075, I -0.296 ± 0.25, C -0.059 ± 0.1, K -0.251 ± 0.1, Y 0.285 ± 0.28, D 0.183 ± 0.34, T -0.291 ± 0.1, M -0.384 ± 0.15, V -0.243 ± 0.1, S -0.065 ± 0.096
K29: S -0.329 ± 0.11, Q -0.283 ± 0.15, A -0.235 ± 0.085, Y -0.026 ± 0.15, F -0.17 ± 0.089, V -0.078 ± 0.082, L -0.067 ± 0.085, N -0.464 ± 0.21, T -0.313 ± 0.14, P -0.499 ± 0.12, H 0.051 ± 0.086, C -0.752 ± 0.26, R -0.06 ± 0.079, E -0.231 ± 0.14, W -0.432 ± 0.086, I -0.241 ± 0.14, M -0.018 ± 0.12, G -0.234 ± 0.082
